Measured values as given in the supplement of paper PMC9732359.
± gives the uncertainty stated by the source.

Test: protein stability index of a GFP-peptide fusion (yeast GPS) (PSI 1-4); higher = more stable; sorted into four equal gates, so the index is relative within each strain
How it was run: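 The protein stability index combines read frequencies across sorting gates, each weighted by its gate number and then summed. To obtain those frequencies, a pooled yeast library of GFP fusions to tiled 17-residue yeast protein peptides, on a plasmid also expressing Cherry, was grown to mid-log phase in leucine-free medium. The cells were sorted into four equal gates by GFP/Cherry ratio before plasmid amplification by PCR and Illumina sequencing.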

Row | Sequence | protein stability index (doa10∆) | protein stability index (pdr5∆) | protein stability index (san1∆) | protein stability index (ubr1∆)
1 | LGKFKNIIASPLSAGFN [SIN4] | 1.88 ± 0.06 | 1.94 ± 0.05 | 1.95 ± 0.09 | 2.04 ± 0.056
2 | QMTQIMDIMEDFLRYIN [SNF2] | 1.21 ± 0.032 | 1.33 ± 0.034 | 1.4 ± 0.08 | 1.43 ± 0.027
3 | QANPTEESISKFPDMGS [RPB5] | 3.23 ± 0.082 | 3.26 ± 0.076 | 3.04 ± 0.074 | 3.26 ± 0.087
4 | FKYIYELILAGAIDEAL [YDL116W/NUP84] | 1.6 ± 0.074 | 1.5 ± 0.073 | 1.44 ± 0.1 | 1.52 ± 0.067
5 | NLLCYYNLRSLNLINAK [RPN3] | 1.48 ± 0.049 | 1.71 ± 0.06 | 1.36 ± 0.12 | 1.25 ± 0.041
6 | VQKILPLSNEVFEISEN [SWI1] | 2.13 ± 0.043 | 1.85 ± 0.039 | 1.73 ± 0.06 | 2.17 ± 0.035
7 | ITLRGVENIERVVMMKY [RPO21] | 2.22 ± 0.12 | 2.28 ± 0.096 | 1.23 ± 0.16 | 2.19 ± 0.076
8 | IIYPRSQTTLVQFGLNE [ARP9] | 3.04 ± 0.19 | 1.33 ± 0.082 | 2.03 ± 0.12 | 1.26 ± 0.17
9 | SCGYPSAKTRSHNWAAK [RPL37B] | 2.95 ± 0.076 | 3.15 ± 0.059 | 3.3 ± 0.09 | 2.91 ± 0.069
10 | NEYRLAFYQVTPEEDEE [RPL22A] | 2.52 ± 0.077 | 2.61 ± 0.071 | 2.75 ± 0.073 | 2.69 ± 0.087
11 | EKSPDPTIRSNAVLGLG [YCS4] | 2.38 ± 0.052 | 2.26 ± 0.054 | 2.3 ± 0.074 | 2.53 ± 0.043
12 | LLQGGAKVVVTTSRFSK [FAS2] | 2.72 ± 0.077 | 2.43 ± 0.068 | 2.72 ± 0.056 | 2.78 ± 0.047
13 | RVIKDFKKLNSKNMSKS [YMR153W/NUP53] | 1.95 ± 0.16 |  | 2.64 ± 0.21 | 
14 | QRFVGHKSDVMSVDIDK [ASC1] | 3.04 ± 0.095 | 3.06 ± 0.061 | 2.69 ± 0.082 | 2.96 ± 0.071
15 | QFAPAFLNTPNNNINEN [SSN2] | 2.92 ± 0.067 | 2.98 ± 0.063 | 2.66 ± 0.068 | 2.89 ± 0.06
16 | DSLRKLYVDSESTSSTE [MTW1] | 2.86 ± 0.072 | 3.51 ± 0.1 | 3.16 ± 0.1 | 3 ± 0.068
17 | CANKYMTTVSGRDAFHL [RPL10] | 2.24 ± 0.24 | 2.64 ± 0.15 | 1.74 ± 0.2 | 1.92 ± 0.1
18 | DEFKDITKEVTQVNILK [YIL149C/MLP2] | 3.14 ± 0.082 | 3.2 ± 0.075 | 2.67 ± 0.14 | 3.3 ± 0.057
19 | PTQTVAELDLMSGILHC [RPN6] | 2.8 ± 0.06 | 3.07 ± 0.054 | 2.95 ± 0.047 | 3.1 ± 0.051
20 | DFITGSYLISHKDSFYD [RPO31] | 2.02 ± 0.066 | 1.94 ± 0.049 | 2.13 ± 0.064 | 1.83 ± 0.045
21 | LVDVMTTQGGLTSVTRH [RPO21] | 2.14 ± 0.1 | 2.38 ± 0.072 | 2.1 ± 0.09 | 2.3 ± 0.069
22 | VEINSSESDLDEDKNFP [ESC2] | 2.99 ± 0.063 | 2.66 ± 0.056 | 3.25 ± 0.052 | 3.16 ± 0.057
23 | PETCLFVSYFGKQIKST [YML103C/NUP188] | 2.61 ± 0.051 | 2.45 ± 0.039 | 2.27 ± 0.062 | 2.64 ± 0.037
24 | EVIFSFEGTPPFSLTYV [YMR129W/POM152] | 2.09 ± 0.051 | 2.21 ± 0.063 | 2.11 ± 0.083 | 2.25 ± 0.047
25 | LTIVTCKQFPKLSCIQL [SRB8] | 1.99 ± 0.07 | 1.86 ± 0.058 | 1.46 ± 0.05 | 1.6 ± 0.03
26 | WCTTCKSAENIIKMTIP [RET1] | 3.08 ± 0.077 | 3.1 ± 0.095 | 3.11 ± 0.067 | 3.03 ± 0.071
27 | PLIQNSMRTIMKANPAL [PRP8] | 2.4 ± 0.08 | 2.58 ± 0.22 | 1.56 ± 0.3 | 2.25 ± 0.17
